Drawing on US20120123099A1, this text covers Absorbance A450 nm and cellular cytotoxicity (%) (ADCC activity) by NK 92 effector cells on Calcein-AM-loaded hybridoma Mab35 for 1 substance.

Test [1] concerns the target anti-nAChR autoantibody mAb35 (an autoantibody to rat nAChR), purified from supernatant of hybridoma Mab35 (ATCC TIB-175). In words: ELISA; mAb35 immobilised at 625 ng/mL, α1-Fc added, detected with HRP-labeled anti-human Fc antibody.
Test [2] has the same target. Kind of test: ELISA; mAb35 immobilised at 9.8 ng/mL, α1-Fc added, detected with HRP-labeled anti-human Fc antibody.
For test [3], the target named is anti-nAChR autoantibody presented on the cell surface of hybridoma Mab35 (ATCC TIB-175). In words: cell-based or functional assay.
Test [4] has as its target anti-nAChR autoantibody mAb35 (an autoantibody to rat nAChR), purified from supernatant of hybridoma Mab35 (ATCC TIB-175). In words: ELISA; mAb35 immobilised at 2500 ng/mL, α1-Fc added, detected with HRP-labeled anti-human Fc antibody.
Test [5] shares this target. In words: ELISA; mAb35 immobilised at 156.3 ng/mL, α1-Fc added, detected with HRP-labeled anti-human Fc antibody.
For test [6] the target is unchanged. In words: ELISA; mAb35 immobilised at 10000 ng/mL, α1-Fc added, detected with HRP-labeled anti-human Fc antibody.
Test [7] shares this target. Kind of test: ELISA; mAb35 immobilised at 39.1 ng/mL, α1-Fc added, detected with HRP-labeled anti-human Fc antibody.

For the substance “fusion protein α1-Fc, consisting of an N-terminal extracellular region of isoform 1 of human nAChRα1 subunit and a human antibody heavy chain Fc region (Fc fusion)”, the Absorbance A450 nm in test [1] stood at 0.871 A450 nm; in test [2] it was 0.505 A450 nm; in test [4] it was 1.12 A450 nm; in test [5], 0.659 A450 nm; in test [6] it was 1.23 A450 nm; in test [7], 0.557 A450 nm. Moreover, in test [3], the cellular cytotoxicity (%) (ADCC activity) by NK 92 effector cells on Calcein-AM-loaded hybridoma Mab35 is 50%.
